Results published in US20150299296A1 (Chugai, published 2015).

Tests used:
Experiment in all cases: SPR; IL6R-BF648/IL6R-L=100
[1] = target: T1, human FcγRIa extracellular domain with C-terminal His tag (human, UniProt P12314 16-292)
T1 construct: Whole entry named; also called FcgRIa; FcgIa
Procedure: (§1) IL6R-L was utilized as the common antibody L chain for all of the antibodies, the antibodies were expressed and purified according to the method of Reference Example 1, and binding to each of the FcγRs (FcγRIa, FcγRIIa type H, FcγRIIa type R, FcγRIIb, and FcγRIIIa type V) was comprehensively evaluated by the method of Reference Example 2.
(§2) Relative binding activities were calculated for the results of analyzing interactions with the respective FcγRs according to the following method.

[2] = target: T2, human FcγRIIa type H extracellular domain with C-terminal His tag (human, UniProt P12318 34-217)
T2 construct: extracellular domain; also called FcgRIIaH; FcγRIIa H
T2 sequence (looked up): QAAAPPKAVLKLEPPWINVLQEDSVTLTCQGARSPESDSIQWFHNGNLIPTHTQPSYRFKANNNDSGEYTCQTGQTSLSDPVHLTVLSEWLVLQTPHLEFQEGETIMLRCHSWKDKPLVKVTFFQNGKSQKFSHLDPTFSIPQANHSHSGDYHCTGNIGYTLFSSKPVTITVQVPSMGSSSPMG
Procedure: as §1, §2

[3] = target: T3, human FcγRIIb extracellular domain with C-terminal His tag (human, UniProt P31994 43-217)
T3 construct: extracellular domain; For crystals it was expressed with kifunensine and trimmed with Endo F1; also called FcgRIIb; FcγRIIb extracellular region
T3 sequence (looked up): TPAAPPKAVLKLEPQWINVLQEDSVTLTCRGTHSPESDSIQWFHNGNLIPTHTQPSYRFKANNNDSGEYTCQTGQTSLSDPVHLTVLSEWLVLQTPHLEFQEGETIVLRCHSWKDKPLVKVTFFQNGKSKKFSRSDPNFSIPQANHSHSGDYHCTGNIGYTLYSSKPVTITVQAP
Procedure: as §1, §2

T1 sequence (P12314 16-292): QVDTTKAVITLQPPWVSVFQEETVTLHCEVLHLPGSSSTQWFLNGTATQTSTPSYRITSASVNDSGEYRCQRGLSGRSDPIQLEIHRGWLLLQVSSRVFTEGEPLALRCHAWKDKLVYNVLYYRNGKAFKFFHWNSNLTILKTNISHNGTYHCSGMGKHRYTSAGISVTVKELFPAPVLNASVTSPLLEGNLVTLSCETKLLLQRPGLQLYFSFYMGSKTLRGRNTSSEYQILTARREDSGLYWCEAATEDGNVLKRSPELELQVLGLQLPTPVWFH

B1: IL6R-BP130/IL6R-L (antibody, human IgG1, kappa, name in EU numbering)
heavy: QVQLQESGPGLVKPSETLSLTCAVSGHSISHDHAWSWVRQPPGEGLEWIGFISYSGITNYNPSLQGRVTISRDNSKNTLYLQMNSLRAEDTAVYYCARSLARTTAMDYWGEGTLVTVSSASTKGPSVFPLAPSSKSTSGGTAALGCLVKDYFPEPVTVSWNSGALTSGVHTFPAVLQSSGLYSLSSVVTVPSSSLGTQTYICNVNHKPSNTKVDKKVEPKSCDKTHTCPPCPAPDLLGGDSVFLFPPKPKDTLMISRTPEVTCVVVDVSHEDPEVKFNWYVDGVEVHNAKTKPREEQYNSTYRVVSVLTVLHQDWLNGKEYKCKMSNKALPKPIEKTISKAKGQPREPQVYTLPPSRDELTKNQVSLTCLVKGFYPSDIAVEWESNGQPENNYKTTPPVLDSDGSFFLYSKLTVDKSRWQQGNVFSCSVMHEALHNHYTQESLSLSP
light: not shown
In the case of B1, the relative binding activity [1] is reported as 104 and the relative binding activity [2] is reported as 224.

B2: IL6R-BP188/IL6R-L (antibody, human IgG1, kappa, name in EU numbering)
heavy: QVQLQESGPGLVKPSETLSLTCAVSGHSISHDHAWSWVRQPPGEGLEWIGFISYSGITNYNPSLQGRVTISRDNSKNTLYLQMNSLRAEDTAVYYCARSLARTTAMDYWGEGTLVTVSSASTKGPSVFPLAPSSKSTSGGTAALGCLVKDYFPEPVTVSWNSGALTSGVHTFPAVLQSSGLYSLSSVVTVPSSSLGTQTYICNVNHKPSNTKVDKKVEPKSCDKTHTCPPCPAPDLLGDDSVFLFPPKPKDTLMISRTPEVTCVVVDVSDEDGEVKFNWYVDGVEVHNAKTKPREEQYNSTYRVVSVLTVLHQDWLNGKEYKCKVSNKALPKPIEKTISKAKGQPREPQVYTLPPSRDELTKNQVSLTCLVKGFYPSDIAVEWESNGQPENNYKTTPPVLDSDGSFFLYSKLTVDKSRWQQGNVFSCSVMHEALHNHYTQESLSLSP
light: not shown
B2 was tested, and the relative binding activity [1] was 74 and the relative binding activity [3] was 179.

B3: IL6R-BP178/IL6R-L (antibody, human IgG1, kappa, name in EU numbering)
heavy: QVQLQESGPGLVKPSETLSLTCAVSGHSISHDHAWSWVRQPPGEGLEWIGFISYSGITNYNPSLQGRVTISRDNSKNTLYLQMNSLRAEDTAVYYCARSLARTTAMDYWGEGTLVTVSSASTKGPSVFPLAPSSKSTSGGTAALGCLVKDYFPEPVTVSWNSGALTSGVHTFPAVLQSSGLYSLSSVVTVPSSSLGTQTYICNVNHKPSNTKVDKKVEPKSCDKTHTCPPCPAPDLLGDDSVFLFPPKPKDTLMISRTPEVTCVVVDVSHEDGEVKFNWYVDGVEVHNAKTKPREEQYNSTYRVVSVLTVLHQDWLNGKEYKCKVSNKALPKPIEKTISKAKGQPREPQVYTLPPSRDELTKNQVSLTCLVKGFYPSDIAVEWESNGQPENNYKTTPPVLDSDGSFFLYSKLTVDKSRWQQGNVFSCSVMHEALHNHYTQESLSLSP
light: not shown
Binder B3 has a relative binding activity [2] of 259 and a relative binding activity [3] of 179.

B4: IL6R-BP146/IL6R-L (antibody, human IgG1, kappa, name in EU numbering)
heavy: QVQLQESGPGLVKPSETLSLTCAVSGHSISHDHAWSWVRQPPGEGLEWIGFISYSGITNYNPSLQGRVTISRDNSKNTLYLQMNSLRAEDTAVYYCARSLARTTAMDYWGEGTLVTVSSASTKGPSVFPLAPSSKSTSGGTAALGCLVKDYFPEPVTVSWNSGALTSGVHTFPAVLQSSGLYSLSSVVTVPSSSLGTQTYICNVNHKPSNTKVDKKVEPKSCDKTHTCPPCPAPEYLGDDSVFLFPPKPKDTLMISRTPEVTCVVVDVSHEDPEVKFNWYVDGVEVHNAKTKPREEQYNSTYRVVSVLTVLHQDWLNGKEYKCKVSNAALPAPIEKTISKAKGQPREPQVYTLPPSRDELTKNQVSLTCLVKGFYPSDIAVEWESNGQPENNYKTTPPVLDSDGSFFLYSKLTVDKSRWQQGNVFSCSVMHEALHNHYTQESLSLSP
light: not shown
B4 gave a relative binding activity [2] of 203 and a relative binding activity [3] of 156.
